Test results: the domain aggregation screens of Martell et al. (2025)

Assay: soluble fraction after stress (log2 fold change); higher = more stays soluble; pooled small domains, quantitative proteomics
Settings: stress: 75 degC
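Also: 20 min heating vs room temperature control held 20 min.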

Sequence	soluble fraction (log2)
HMTEKIRLTVDEAGKNQRVDKYISTLLTQFSRSSIKTWIETGNILLDNTRTKPRTLLSPGQVIDIQPRFED	-1.09
HMTEKIVFNIDGQTGRIDKILADFMTGTSRSQIQAWVKDGNLMVNDKAVKSNYKVQDGDLLELTIPEPEQ	-0.284
HMTELIEDYVELIGDLIRHRGEARAADIANRMAVSQATVSKMIRRLNELGLVTSKPYRSLFLTDEGQKMAE	-0.363
HMTELLTPKQRQVFELALREGYYDVPRRTSITEMARLLGVAKSTLSAQMHRMEATVMSTFAEEIRKQ	-2.01
HMTENIPPVKIEEMRQKWQDIVLLHGVTSGRKIKSGQATYIWLYRNDQNWLLTFNSRHLSQPQV	0.232
HMTEPKILTAEESQRLDLILVQQWPELGRRALRELVQQGGVRINGELALKAGQYVQAGERVEVAVP	0.232
HMTEQKNNEQQNAVNEKKQALKQLMEKGKEKGSLSYNEVNALLDKLEFTEDQKAIVYDQLHSEDIELQ	0.3
HMTEQLTLVGKTGVTTTDLRPSGKVEVDGKRYDAVADNGAFISKGAHIKVVRYVTGQVYVVPTD	-0.0624
HMTERIRLHDDIGSWVEKHGATRSALIPVLQGIQRSYNEISEYAMQEVADRLDIHPVEVYSVVSFYSF	0.307
HMTESFEFTMNDLVQNNLIMGSGAKERRIAVGEALGIGYTNAKQFLSRLNHYGITRKEFDDEIEKVNQN	-0.311
HMTETEIVIGGKYRHYKGGEYELVSIVKHSETLEELVIYKSLSTGEMWARPKSLFVGLVDGQPRYTL	-2.22
HMTETIPVSERLFRYLFEEKGKRVQKIQQTSHARVRMERSPYSVVVSGTKDAVEAAMESLKATEKELLEA	-0.161
HMTETPDDLLAALKKNKKAQATFDAFSPSNKKEYILWITEAKTEATRTKRLETAIEWMSEGKARNW	-0.579
HMTETTTVPKLKGLTKDEAEDAAKSSKIKLEFIDEISKTVEAGVIIKQEKDEGETVNAGDTVKVYVSIGT	0.472
HMTEWSIHEVAQRSGVTTRTLRHYDAIGILSPTRTGANGYRYYGPEALVRLQRILLLRDLGLALSDIAE	-3.82
HMTEYFTIESQEGERIDRYLSEELEDKSRSYIQKLIRDGHVLVDGKTVKAGYRLVAGDNIAITLPEI	-0.132
HMTFAPTAIPSLTRPMEELMSWSFTPNEAFILSRINGLWDVRSIAKISPFPEGEVLRVFEKLHDGGLIRW	-3.6
HMTFNEPSPKEIMDYSLSRGYKVDADAFIDFYRGKAKAYGKEGLWLDGRGRLVKDWRAKLRVVWFKDENKL	-1.36
HMTGDIGAEAAKAAALAHAGVTESQTAKMKVDRDWDDGRLEYDVEFDVGRTEYEYTIDGVTGAVLEYEQDI	0.0252
HMTGDIIKQERKKKNLTQIELAKKVGISRNALINYEAGTRIPPISVQLKLADVLGIDILDLK	-1.64
HMTGDISRALDQLPADMRTVLILYALEKQRYEDIAQITGVSVGTVKSRLNRARQKLAAILANQREQNE	-1.49
HMTGDNQTIGGGGFHHVAIRAHDFDASVKFYGETLGFREKIAWGEGDKRAIMMDTGDGNYIEIF	0.0318
HMTGEDIKKVILREYAREKSLLSIFHELSKVNSNVTLEVIKDIITNIDKLPNDLLQYFKEESSFYQKNKN	-1.46
HMTGGIWVQIQGAVERPGVYSLPRDSRLKDLLEAAGGFGRDADTEKVNQAARLEDGAMYRVPRQGEG	0.49
HMTGGLLVHVAGAVGAPGVVSLPEGARVVDAIEAAGGAREDADTDQLNLARPVVDGEQVRVPVVGEVLE	-0.00946
HMTGINMSYEEYKAMADIIVPLIKAGHSPYHIVTNHPELNISEKTLYNYIENGIFREFGLLDINL	-1.59
HMTGIRVYPNPTSSELRFSVATDAALYDATGARLRVVRGSDMMDIRDLASGTYYVRFADGSTQSVVVT	-0.755
HMTGKLGKIILQPKQTVYGITKKYQISESELRRLNPQLDSHLKIGDEVILPAENIKKFGGNQPVAVS	0.268
HMTGKTTLEYLNPLLERGIPVWDYLAKASGKAKEEVQEMVSKGLVPGAEAAKAIADYMGAEFAGSMA	-0.0343
HMTGKVKWYDADKGFGFVTEDGGRDVYVRKSALPQGVETLKAGQRLEFGIAEGRRGPQALSVR	-0.0771
